US20090087417A1, “METHODS FOR PROMOTING DOPAMINERGIC NEURONAL DEVELOPMENT BY USING NG4A-SUBFAMILY AND WNT-LIGANDS” (priority 2002, published 2009)

Assays:
Assay type in all cases: cell-based, rat
VM cultures = experiment: TuJ1+ neurons and proliferating clusters, proportion dopaminergic, in VM cultures; settings: for total number of TuJ1+ neurons: FIG. 3f
Protocol: (§1) Ventral mesencephala and cerebral cortices from embryos E13.5-14.5 obtained from timed-mated Sprague-Dawley rats were dissected, mechanically dissociated and plated at a final density of 1×10^5 cells/cm2 on poly-D-lysine coated 12- or 24-well plates in a defined, serum-free medium (N2, consisting of a 1:1 mixture of F12 and DMEM containing insulin (10 ng/ml), transferrin (100 μg/ml), putrescine (100 μM), progesterone (20 nM), selenium (30 nM), glucose (6 mg/ml), and bovine serum albumin (1 mg/ml)). Purified Type 1 astrocytes were obtained from mixed glial cultures derived from the VM or CTX of P1 rats according to a standard protocol (Wagner et al., 1999). After shaking and replating into 12-well plates, astrocytes were grown to confluency in 15% fetal bovine serum-containing media and changed to N2 medium, at which time freshly dissected VM or CTX cells were plated on top of the astrocytes at a density of 1×10^5 cells/cm2. All factors were added once, at the initiation of culture, with the exception of 5-bromodeoxyuridine (BrdU), which was added 4-6 hours prior to fixation. Cultures were maintained in a humidified 5% CO2, 95% air incubator at 37° C. and fixed after given time periods with 4% paraformaldehyde for 45 minutes prior to immunocytochemical analysis.
(§2) Fixed cultures were incubated with one of the following antibodies, diluted appropriately in phosphate-buffered saline (PBS) containing 1% bovine serum albumin and 0.3% Triton-X 100: mouse anti-BrdU, 1:50 (DAKO, Denmark), mouse anti-β-tubulin, Type III (TuJ1), 1:250 (Sigma), mouse anti-TH, 1:1000 (Incstar, USA), rabbit anti-TH, 1:250 (PelFreeze); rabbit anti-Nurr1, 1:2000 (gift from Dr. T. Perlmann, Sweden), rabbit anti-Nurr1, 1:1000 (Santa Cruz, USA) or mouse anti-Nurr1, 1:250 (BD Transduction Laboratories, USA), rabbit anti Adh2 1:4000 (gift from Dr. R. Lindahl, South Carolina). Incubations were either carried out at 4° C. overnight, or at room temperature for 1 hour. Both processes yielded similar results. After washing, cultures were incubated for 1-3 hr with appropriate secondary antibodies (biotinylated 1:500; CY2-, FITC-, or rhodamine-coupled horse-anti-mouse IgG 1:100; or goat-anti-rabbit IgG 1:100; all from Vector, USA), in the same dilution buffer. Brightfield immunostaining was visualized with the Vector Laboratory ABC immunoperoxidase kit, using either NovaRed (red), or AEC (red), SG or 3-3′ dimaminobenzidine tetrahydrochloride (DAB 0.5 mg/ml)/nickel chloride (1.6 mg/ml) (gray/black), or VIP (violet) substrates. Double-staining was performed by sequential single staining as described. The order of staining was only critical for BrdU-double labeling, in which case the BrdU procedure was always performed second. […] Photos were acquired with a Zeiss Axioplan 100M microscope and collected with a Hamamatsu camera C4742-95 (with the QED imaging software).
Only clearly stained cells were counted as positive cells. Spheres were considered positive if they contained one or more positive cell. Quantitative immunocytochemical data on individual cells represent means and standard errors of counts obtained by a blinded observer from 10-20 non-overlapping fields (cells) or in the entire well (clusters), in each of 3-4 wells per condition from 3-4 independent experiments, unless stated otherwise. For each variable, initial statistical comparisons were performed by a global ANOVA, with multiple factors of dose, time point, treatment and/or region; if significant interactions between treatment and any other variable existed, data were further divided into separate times, doses or regions. Fisher's protected least significant difference was used post hoc to identify specific points at which the treatments differed from controls (or each other) only when significant interactions between factor treatment and other variables occurred. Significance for all tests was assumed at the level of p<0.05. […]

[1] = tested on: ventral mesencephalic Nurr1+ neuronal precursors; experiment: Conversion of VM Nurr1+ precursors into Nurr1+/TH+ dopaminergic neurons (double immunostaining); settings: VM cultures; control approximately 50%
Protocol: as §1
B1A fibroblast lines were cotransfected with the mFz8CRD-IgG/pRK5 and the pIRES puro 2 (Clontech, BD Bioscience, Erembodegem, Belgium) plasmids, using Lipofectamine Plus reagent (Invitrogen, Lidingo, Sweden) according to the instruction of the manufacturer. Upon selection for puromycin resistance (1 μg/ml Sigma, Stockholm, Sweden), clones were isolated and expanded. A clone overexpressing Fz8CRD 700× (real time RT-PCR analysis) was identified. Harvesting and partial purification of Fz8CRD conditioned media were performed as described previously. In all the blocking experiments performed, the Fz8CRD and B1A control partial purified conditioned medias were used at a final concentration of 125-250 μg/ml. […]
Only clearly stained cells were counted as positive cells. […]

[2] = tested on: E13.5 primary cultures from the cerebral cortex; experiment: Induction of TH in Nurr1+ E13.5 cerebral cortex primary cultures; settings: for proportion of Nurr1 positive cortical cells that expressed TH: Wnt ligands or co-culture with P1 astrocytes
Protocol: as §1, §2
Only clearly stained cells were counted as positive cells. Spheres were considered positive if they contained one or more positive cell. Quantitative immunocytochemical data on individual cells represent means and standard errors of counts obtained by a blinded observer from 10-20 non-overlapping fields (cells) or in the entire well (clusters), in each of 3-4 wells per condition from 3-4 independent experiments, unless stated otherwise. […]

| Molecule | proportion of VM clusters containing dopaminergic neurons (VM cultures; FIG. 3e) | total number of TuJ1+ neurons (VM cultures) | proportion of TH+ (dopaminergic) neurons (VM cultures; FIG. 3g) | proportion of Nurr1 positive cells that expressed TH (Nurr1+/TH+) [1] | proportion of Nurr1 positive cortical cells that expressed TH [2] | enrichment for dopaminergic clusters (VM cultures; FIG. 3e) | enrichment for dopaminergic neurons (VM cultures; FIG. 3g) | increase in number of proliferating clusters containing TuJ1+ cells (VM cultures; compared to control (FIG. 3d)) | increase in number of double Nurr1/TH+ cells compared to Wnt-1 ([2]; 3 days) | increase in number of double Nurr1/TH+ cells compared to control ([2]; 3 days) |
| --- | --- | --- | --- | --- | --- | --- | --- | --- | --- | --- |
| Wnt-1: Partially purified conditioned media from stable fibroblast cell line engineered to secrete Wnt-1 ligand (protein, left off: small tags and cut ends) ANSSGRWWGIVNIASSTNLLTDSKSLQLVLEPSLQLLSRKQRRLIRQNPGILHSVSGGLQSAVRECKWQFRNRRWNCPTAPGPHLFGKIVNRGCRETAFIFAITSAGVTHSVARSCSEGSIESCTCDYRRRGPGGPDWHWGGCSDNIDFGRLFGREFVDSGEKGRDLRFLMNLHNNEAGRTTVFSEMRQECKCHGMSGSCTVRTCWMRLPTLRAVGDVLRDRFDGASRVLYGNRGSNRASRAELLRLEPEDPAHKPPSPHDLVYFEKSPNFCTYSGRLGTAGTAGRACNSSSPALDGCELLCCGRGHRTRTQRVTERCNCTFHWCCHVSCRNCTHTRVLHECL | about 30% | increased | did not increase | 70% | significant increase |  |  |  |  |  |
| Wnt-5a: Partially purified conditioned media from stable fibroblast cell line engineered to secrete Wnt-5a ligand (protein, left off: small tags and cut ends) IIGAQPLCSQLAGLSQGQKKLCHLYQDHMQYIGEGAKTGIKECQYQFRHRRWNCSTVDNTSVFGRVMQIGSRETAFTYAVSAAGVVNAMSRACREGELSTCGCSRAARPKDLPRDWLWGGCGDNIDYGYRFAKEFVDARERERIHAKGSYESARILMNLHNNEAGRRTVYNLADVACKCHGVSGSCSLKTCWLQLADFRKVGDALKEKYDSAAAMRLNSRGKLVQVNSRFNSPTTQDLVYIDPSPDYCVRNESTGSLGTQGRLCNKTSEGMDGCELMCCGRGYDQFKTVQTERCHCKFHWCCYVKCKKCTEIVDQFVCK |  | did not increase |  | 90% | significant increase | more than two | more than two | did not increase | > 4 fold | > 40 fold |
